22 molecules from patent US20240002497A1 (Merck Sharp & Dohme, published 2024) can be followed below.

Assay [1] addresses T1, huNav1.7α + β1-β2-β3 (human Nav1.7α co-expressed with human Navβ1, Navβ2 and Navβ3 on cells) (human).
T1 construct: also called huNav1.7-beta1-beta2-beta3; CHO FlpIn huNav1.7α + β1-β2-β3
Put plainly: binding FACS, CHO FlpIn cells. As for the experimental part: (§1) Binding of the ISVDs to cell-expressed Nav1.7α was detected via murine anti-Flag (Sigma, catalog #F1804). Briefly, cells were resuspended in FACS buffer (PBS, 10% FBS, NaN₃) and transferred to a 96-well V-bottom plate at 1×10^5 cells/well. Purified FLAG3-tagged ISVD was diluted in FACS buffer and added to the cells for 30 minutes at 4° C. […] Prior to the read-out, the samples were resuspended in 1 μg/mL propidium iodide (Sigma, catalog #P4170) to exclude dead cells. Between each step, the cells were centrifuged for 5 minutes at 200 grams and washed with 100 μL/well FACS buffer.

The next assay concerns the target T2, huNav1.7α + β1-β2-β3 (human, UniProt Q15858 1-1988; A5A6L6 19-218; O60939 30-215; Q2KI11 23-215).
T2 construct: also called huNav1.7-beta1-beta2-beta3; huNav1.7-β1-β2-β3
Put plainly: binding FACS, CHO FlpIn. As for the experimental part: as §1

Another assay addresses T3, rhNav1.7α + β1-β2-β3 (rhesus monkey).
T3 construct: also called rhNav1.7-beta1-beta2-beta3; rhNav1.7-β1-β2-β3
Nature of the assay: binding FACS, CHO FlpIn. The method, then: as §1

B1: F010302316 (VHH)
VHH: EVQLVESGGGVVQPGGSLRLSCAASGPVFNINRMAWYRQAPGKQRELVAYVTPTGDISYADSVKGRFTISRDASKRVYLQMNSLRPEDTALYYCRALLQPRSYSITRTYWGQGTLVTVSS
notes: also called F0103387G04(L11V, A12V, K33R, R39Q, S50Y, S56D, T60A, G73A, W78V, S79Y, T83R, V89L, N93R, D99R, N100cI)-FLAG3-HIS6
With B1, in assay [1], the Bmax worked out at 91% and the EC50 (usually the midpoint of the concentration-response curve) is 8.2 nM.

B2: F010302319 (VHH)
VHH: EVQLVESGGGVVQPGGSLRLSCAASGPVFNINRMAWYRQAPGKQRELVAYVTPTGDISYADSVKGRFTISRDASKRVYLQMNSLRPEDTALYYCRALLQPDRYSITRTYWGQGTLVTVSS
notes: also called F0103387G04(L11V, A12V, K33R, R39Q, S50Y, S56D, T60A, G73A, W78V, S79Y, T83R, V89L, N93R, S100R, N100cI)-FLAG3-HIS6
Regarding B2, in assay [1], the Bmax was determined as 88% and the EC50 was found to be 15 nM.

B3: F010302318 (VHH)
VHH: EVQLVESGGGVVQPGGSLRLSCAASGPVFNINRMAWYRQAPGKQRELVAYVTPTGDISYADSVKGRFTISRDGSKRVYLQMNSLRPEDTALYYCRALLQPDRYSITRTYWGQGTLVTVSS
notes: also called F0103387G04(L11V, A12V, K33R, R39Q, S50Y, S56D, T60A, W78V, S79Y, T83R, V89L, N93R, S100R, N100cI)
In the case of B3, in assay [1], the Bmax amounted to 89% and the EC50 stood at 11 nM.

B4: F010302321 (VHH)
VHH: EVQLVESGGGVVQPGGSLRLSCAASGPVFNINRMAWYRQAPGKQRELVAYVTPTGDISYADSVKGRFTISRDRSKRVYLQMNSLRPEDTALYYCRALLQPDRYSITRTYWGQGTLVTVSS
notes: also called F0103387G04(L11V, A12V, K33R, R39Q, S50Y, S56D, T60A, G73R, W78V, S79Y, T83R, V89L, N93R, S100R, N100cI)-FLAG3-HIS6
For the molecule B4, in assay [1], the Bmax is 91% and the EC50 was 7.9 nM.

B5: F010302324 (VHH)
VHH: EVQLVESGGGVVQPGGSLRLSCAASGPVFNINRMAWYRQAPGKQRELVAYVTPTGDISYADSVKGRFTISRDRSKRVYLQMNSLRPEDTALYYCRALLQPRRYSITRTYWGQGTLVTVSS
notes: also called F0103387G04(L11V, A12V, K33R, R39Q, S50Y, S56D, T60A, G73R, W78V, S79Y, T83R, V89L, N93R, D99R, S100R, N100cI)
Take B5: in assay [1], the Bmax was 42% and the EC50 is 29 nM.

B6: F010302334 (VHH)
VHH: EVQLVESGGGVVQPGGSLRLSCAASSRQFIRDVFTGWYRRAPGKQRELVARIYNEGNTQYADSAKGRFTISRDNAKKTVYLQMNSLRPEDTALYYCLFSGTISTGREYRSGDYWGQGTLVTVSS
B6: in the assay with huNav1.7α + β1-β2-β3, the Bmax came to 100% and the EC50 was 4 nM. In the assay with rhNav1.7α + β1-β2-β3, the Bmax came to 70% and the EC50 amounted to 11 nM.

B7: F010302346 (VHH)
VHH: EVQLVESGGGVVQPGGSLRLSCAASHRAFIRDVFTGWYRQAPGKQRELVARIYESGNTQYADSAKGRFTISRDNAKKTVYLQMNSLRPEDTALYYCLFSGTISTGREYRSGDYWGQGTLVTVSS
On to B7, for which the Bmax in the assay with huNav1.7α + β1-β2-β3 came to 100%; in the assay with rhNav1.7α + β1-β2-β3, 99%. The EC50 is 5 nM with huNav1.7α + β1-β2-β3 and 12 nM with rhNav1.7α + β1-β2-β3.

B8: F010302335 (VHH)
VHH: EVQLVESGGGVVQPGGSLRLSCAASSRQFIRDVFTGWYRRAPGKQRELVARIYESGNTQYADSAKGRFTISRDNAKKTVYLQMNSLRPEDTALYYCLFSGTISTGREYRSGDYWGQGTLVTVSS
In the case of B8, the Bmax came out at 100% in the assay with huNav1.7α + β1-β2-β3 and 84% with rhNav1.7α + β1-β2-β3. The values for the EC50 in the assay with huNav1.7α + β1-β2-β3 and in the assay with rhNav1.7α + β1-β2-β3 were 4.1 nM and 13 nM, respectively.

B9: F010302353 (VHH)
VHH: EVQLVESGGGVVQPGGSLRLSCAASHRQFIRDVFTGWYRRAPGKQRELVARIYEGGNTQYADSVKGRFTISRDNAKKTVYLQMNSLRPEDTALYYCLFSGTISTGREYRSGDYWGQGTLVTVSS
With B9, the Bmax with huNav1.7α + β1-β2-β3 was found to be 100%; in the assay with rhNav1.7α + β1-β2-β3, 93%. Moreover, the results for the EC50 with huNav1.7α + β1-β2-β3 and with rhNav1.7α + β1-β2-β3 were 4.2 nM and 7.9 nM, respectively.

B10: F010302340 (VHH)
VHH: EVQLVESGGGVVQPGGSLRLSCAASHRAFIRDLFTGWYRRAPGKQRELVARIYESGNTNYADSAKGRFTISRDNAKKTVYLQMNSLRPEDTALYYCLFSGTISTGREYRSGDYWGQGTLVTVSS
Take B10: in the assay with huNav1.7α + β1-β2-β3, the Bmax stood at 100% and the EC50 was 4.6 nM. For the same molecule, in the assay with rhNav1.7α + β1-β2-β3, the Bmax was 96% and the EC50 is 13 nM.

B11: F010302342 (VHH)
VHH: EVQLVESGGGVVQPGGSLRLSCAASSRQFIRDVFTGWYRQAPGKQRELVARIYNEGNTQYADSAKGRFTISRDNAKKTVYLQMNSLRPEDTALYYCLFSGTISTGREYRSGDYWGQGTLVTVSS
With B11, the Bmax with huNav1.7α + β1-β2-β3 turned out to be 100%; with rhNav1.7α + β1-β2-β3, 61%. Moreover, the EC50 was found to be 4 nM with huNav1.7α + β1-β2-β3 and 16 nM in the assay with rhNav1.7α + β1-β2-β3.

B12: F010302336 (VHH)
VHH: EVQLVESGGGVVQPGGSLRLSCAASHRQFIRDVFTGWYRRAPGKQRELVARIYNEGNTQYADSAKGRFTISRDNAKKTVYLQMNSLRPEDTALYYCLFSGTISTGREYRSGDYWGQGTLVTVSS
With B12, in the assay with huNav1.7α + β1-β2-β3, the Bmax was determined as 100% and the EC50 worked out at 3.6 nM. In the assay with rhNav1.7α + β1-β2-β3, the Bmax amounted to 79% and the EC50 is 9.7 nM.

B13: F010302344 (VHH)
VHH: EVQLVESGGGVVQPGGSLRLSCAASHRQFIRDVFTGWYRQAPGKQRELVARIYNEGNTQYADSAKGRFTISRDNAKKTVYLQMNSLRPEDTALYYCLFSGTISTGREYRSGDYWGQGTLVTVSS
Regarding B13, in the assay with huNav1.7α + β1-β2-β3, the Bmax was 100% and the EC50 was 4.3 nM. In addition, in the assay with rhNav1.7α + β1-β2-β3, the Bmax came to 78% and the EC50 was found to be 13 nM.

B14: F010302352 (VHH)
VHH: EVQLVESGGGVVQPGGSLRLSCAASHRQFIRDVFTGWYRRAPGKQRELVARIYNEGNTQYADSVKGRFTISRDNAKKTVYLQMNSLRPEDTALYYCLFSGTISTGREYRSGDYWGQGTLVTVSS
For B14, the results for the Bmax with huNav1.7α + β1-β2-β3 and in the assay with rhNav1.7α + β1-β2-β3 were 100% and 60%, respectively. Moreover, the EC50 turned out to be 3.6 nM in the assay with huNav1.7α + β1-β2-β3 and 11 nM with rhNav1.7α + β1-β2-β3.

B15: F010302356 (VHH)
VHH: EVQLVESGGGVVQPGGSLRLSCAASHRAFIRDLFTGWYRRAPGKQRELVARIYESGNTNYADSVKGRFTISRDNAKKTVYLQMNSLRPEDTALYYCLFSGTISTGREYRSGDYWGQGTLVTVSS
In the case of B15, in the assay with huNav1.7α + β1-β2-β3, the Bmax is 100% and the EC50 amounted to 5.3 nM. In addition, in the assay with rhNav1.7α + β1-β2-β3, the Bmax amounted to 81% and the EC50 turned out to be 12 nM.

B16: F010302354 (VHH)
VHH: EVQLVESGGGVVQPGGSLRLSCAASHRAFIRDVFTGWYRRAPGKQRELVARIYESGNTQYADSVKGRFTISRDNAKKTVYLQMNSLRPEDTALYYCLFSGTISTGREYRSGDYWGQGTLVTVSS
Turning to B16, in the assay with huNav1.7α + β1-β2-β3, the Bmax came to 100% and the EC50 turned out to be 4.2 nM. In the assay with rhNav1.7α + β1-β2-β3, the Bmax amounted to 96% and the EC50 was 7.9 nM.

B17: F010302338 (VHH)
VHH: EVQLVESGGGVVQPGGSLRLSCAASHRAFIRDVFTGWYRRAPGKQRELVARIYESGNTQYADSAKGRFTISRDNAKKTVYLQMNSLRPEDTALYYCLFSGTISTGREYRSGDYWGQGTLVTVSS
For the molecule B17, in the assay with huNav1.7α + β1-β2-β3, the Bmax amounted to 100% and the EC50 was 3.4 nM. Further, in the assay with rhNav1.7α + β1-β2-β3, the Bmax is 100% and the EC50 is 7.9 nM.

B18: F010302351 (VHH)
VHH: EVQLVESGGGVVQPGGSLRLSCAASSRQFIRDVFTGWYRRAPGKQRELVARIYESGNTQYADSVKGRFTISRDNAKKTVYLQMNSLRPEDTALYYCLFSGTISTGREYRSGDYWGQGTLVTVSS
For B18, in the assay with huNav1.7α + β1-β2-β3, the Bmax turned out to be 100% and the EC50 was 5.6 nM. In addition, in the assay with rhNav1.7α + β1-β2-β3, the Bmax was 72% and the EC50 is 15 nM.

B19: F010302348 (VHH)
VHH: EVQLVESGGGVVQPGGSLRLSCAASHRAFIRDLFTGWYRQAPGKQRELVARIYESGNTNYADSAKGRFTISRDNAKKTVYLQMNSLRPEDTALYYCLFSGTISTGREYRSGDYWGQGTLVTVSS
Take B19: in the assay with huNav1.7α + β1-β2-β3, the Bmax came out at 100% and the EC50 came out at 6.7 nM. Further, in the assay with rhNav1.7α + β1-β2-β3, the Bmax worked out at 95% and the EC50 amounted to 14 nM.

B20: F010302343 (VHH)
VHH: EVQLVESGGGVVQPGGSLRLSCAASSRQFIRDVFTGWYRQAPGKQRELVARIYESGNTQYADSAKGRFTISRDNAKKTVYLQMNSLRPEDTALYYCLFSGTISTGREYRSGDYWGQGTLVTVSS
As for B20, in the assay with huNav1.7α + β1-β2-β3, the Bmax was 100% and the EC50 turned out to be 6.4 nM. In addition, in the assay with rhNav1.7α + β1-β2-β3, the Bmax turned out to be 84% and the EC50 came out at 18 nM.

B21: F010302350 (VHH)
VHH: EVQLVESGGGVVQPGGSLRLSCAASSRQFIRDVFTGWYRRAPGKQRELVARIYNEGNTQYADSVKGRFTISRDNAKKTVYLQMNSLRPEDTALYYCLFSGTISTGREYRSGDYWGQGTLVTVSS
As to B21, the Bmax in the assay with huNav1.7α + β1-β2-β3 is 100%; in the assay with rhNav1.7α + β1-β2-β3, 46%. The EC50 turned out to be 3.5 nM with huNav1.7α + β1-β2-β3 and 15 nM with rhNav1.7α + β1-β2-β3.

B22: F010302345 (VHH)
VHH: EVQLVESGGGVVQPGGSLRLSCAASHRQFIRDVFTGWYRQAPGKQRELVARIYEGGNTQYADSAKGRFTISRDNAKKTVYLQMNSLRPEDTALYYCLFSGTISTGREYRSGDYWGQGTLVTVSS
Turning to B22, the Bmax with huNav1.7α + β1-β2-β3 was 100%; with rhNav1.7α + β1-β2-β3, 96%. Moreover, the EC50 with huNav1.7α + β1-β2-β3 was found to be 4.9 nM; with rhNav1.7α + β1-β2-β3, 12 nM.
